# Measurements as given in patent US12331073B2, “Preparation of biologically active complexes” (priority 2017, dated 2025).
# How the values were obtained:
# tumour cells = experiment: Inherent tumoricidal effect of oleate salts
# [1] = tested on: Human lung carcinoma cells (A549, ATCC); experiment: Cell death assay (ATPlite, PrestoBlue, trypan blue exclusion); format: cell-based
# Experimental: Human lung carcinoma cells (A549, ATCC) were cultured in RPMI-1640 with non-essential amino acids (1:100), 1 mM sodium pyruvate, 50 μg/ml Gentamicin and 5-10% fetal calf serum (FCS) at 37° C., 5% CO2. For cell death experiment, cells were grown on 96-well plate (2×10^4/well, Tecan Group Ltd) overnight. Cells were incubated with biologically active complexes obtained in Example 1 at dosages equivalent to either 7, 21 or 35 μM peptide in serum-free RPMI-1640 at 37° C. FCS was added after 1 hour. Cell death was quantified 3 hours after peptide-oleate treatment by three biochemical methods including 1) estimation of cellular ATP levels using luminescence based ATPlite™ kit (Perkin Elmer) 2) Presto Blue fluorescence staining (Invitrogen, A13262) and 3) trypan blue exclusion assay. Fluorescence and luminescence were measured using a microplate reader (Infinite F200, Tecan).
# cells = conditions: Vukojevic et al. Langmuir 2010; cited from earlier work
# bladder cancer [2] = conditions: murine bladder cancer model; cited from earlier work
# skin papillomas = conditions: topical administration, placebo controlled clinical study; cited from earlier work
# tumor cells = conditions: early in vitro experiments; cited from earlier work
# bladder cancer [3] = conditions: local instillations; cited from earlier work
# glioblastoma xenograft = conditions: rat glioblastoma xenograft model; cited from earlier work
molecule,measurement,setting,value
CCCCCCCC/C=C\CCCCCCCC(=O)[O-].[Na+] [sodium oleate],inherent tumoricidal effect,tumour cells,appear to have some inherent tumoricidal effect
"BAMLET: bovine alpha-lactalbumin (700 μM) and sodium oleate (3.5 mM) dissolved in Phosphate Buffered Saline by vortexing (protein, UniProt P00711 20-142, looked up, complex with sodium oleate, bovine alpha-lactalbumin (700 μM) and sodium oleate (3.5 mM) dissolved in Phosphate Buffered Saline by vortexing) Alpha-lactalbumin: EQLTKCEVFRELKDLKGYGGVSLPEWVCTTFHTSGYDTQAIVQNNDSTEYGLFQINNKIWCKDDQNPHSSNICNISCDKFLDDDLTDDIMCVKKILDKVGINYWLAHKALCSEKLDQWLCEKL",activity after lyophilisation of the complex,[1]; after lyophilisation,removed the activity
same,tumour cell death activity of freshly prepared solution,"[1]; solution in PBS vortexed at room temperature, FIG. 4",biologically active and killed A549 lung carcinoma cells in a dose dependent manner
"complexes using equine lysozyme and oleic acid: complexes using equine lysozyme and oleic acid (Vukojevic et al.) (protein, UniProt P11376 1-129, looked up, complex with oleic acid) Lysozyme C, milk isozyme: KVFSKCELAHKLKAQEMDGFGGYSLANWVCMAEYESNFNTRAFNGKNANGSSDYGLFQLNNKWWCKDNKRSSSNACNIMCSKLLDENIDDDISCAKRVVRDPKGMSAWKAWVKHCKDKDLSEYLASCNL",cell death,cells,found to produce cell death
"HAMLET (protein, UniProt P00709 20-142, looked up, complex with oleic acid) Alpha-lactalbumin: KQFTKCELSQLLKDIDGYGGIALPELICTMFHTSGYDTQAIVENNESTEYGLFQISNKLWCKSSQVPQSRNICDISCDKFLDDDITDDIMCAKKILDIKGIDYWLAHKALCTEKLEQWLCEKL",therapeutic efficacy in bladder cancer,bladder cancer [2],Therapeutic efficacy
same,effect on skin papillomas,skin papillomas,removed or reduced the size of skin papillomas
same,anti-tumor activity in vitro,tumor cells,broad anti-tumor activity with a high degree of tumor selectivity
same,tumor cell death in bladder cancer patients,bladder cancer [3],caused rapid death of tumor cells but not of healthy tissue surrounding the tumor
same,cell death in healthy brain tissue,glioblastoma xenograft,without evidence of cell death in healthy brain tissue
same,tumor progression and survival,glioblastoma xenograft,delayed tumor progression and led to increased survival
